Test system: Escherichia coli TOP10
Test: shrunken log2 fold change of peptide-encoding DNA abundance (4.5 h post-induction vs induction); higher = less antimicrobial activity (less host growth inhibition)
Conditions: time post-induction: 4.5 h; library: site-saturation at positions 5, 18, 19, 20
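Also: peptides expressed intracellularly from a pBAD plasmid library in pooled LB shake-flask culture, induced with 0.3% L-arabinose, DNA abundance read by NGS, three biological replicates, DESeq2 with apeglm shrinkage.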

Row | Sequence | shrunken log2 fold change
1 | RRIRGRPPRLPRPRPRPECAPRP | 2.14
2 | RRIRGRPPRLPRPRPRPVGTPRP | 0.304
3 | RRIRRRPPRLPRPRPRPHCTPRP | -0.18
4 | RRIRGRPPRLPRPRPRPQVEPRP | -0.0312
5 | RRIRARPPRLPRPRPRPQCVPRP | 0.0695
6 | RRIRHRPPRLPRPRPRPAFRPRP | 0.0888
7 | RRIRVRPPRLPRPRPRPVSPPRP | -0.146
8 | RRIRARPPRLPRPRPRPFGPPRP | 0.0166
9 | RRIRRRPPRLPRPRPRPVEVPRP | 0.057
10 | RRIRKRPPRLPRPRPRPREDPRP | 0.346
11 | RRIRDRPPRLPRPRPRPDRNPRP | -0.0216
12 | RRIRMRPPRLPRPRPRPCYYPRP | -0.199
13 | RRIRFRPPRLPRPRPRPVVCPRP | -0.0801
14 | RRIRPRPPRLPRPRPRPWQVPRP | -0.0573
15 | RRIRYRPPRLPRPRPRPTAPPRP | -0.25
16 | RRIRCRPPRLPRPRPRPWWCPRP | -0.248
17 | RRIRSRPPRLPRPRPRPYMDPRP | -0.326
18 | RRIRVRPPRLPRPRPRPIHFPRP | -0.0962
19 | RRIRLRPPRLPRPRPRPRLWPRP | 0.399
20 | RRIRRRPPRLPRPRPRPRYNPRP | -0.132
21 | RRIRRRPPRLPRPRPRPDYAPRP | 0.559
22 | RRIRRRPPRLPRPRPRPPLPPRP | 1.06
23 | RRIRNRPPRLPRPRPRPYLEPRP | -0.00618

Row | Sequence | shrunken log2 fold change
24 | RRIRDRPPRLPRPRPRPLSQPRP | 0.483
25 | RRIRGRPPRLPRPRPRPVWSPRP | 0.179
26 | RRIRIRPPRLPRPRPRPCDLPRP | -0.011
27 | RRIRVRPPRLPRPRPRPPDLPRP | 0.195
28 | RRIRKRPPRLPRPRPRPLMQPRP | -0.134
29 | RRIRSRPPRLPRPRPRPANTPRP | -0.268
30 | RRIRWRPPRLPRPRPRPTIYPRP | 0.113
31 | RRIRDRPPRLPRPRPRPLFMPRP | 0.154
32 | RRIRNRPPRLPRPRPRPGSPPRP | -0.11
33 | RRIRMRPPRLPRPRPRPCPYPRP | -0.126
34 | RRIRHRPPRLPRPRPRPYGVPRP | -0.256
35 | RRIRWRPPRLPRPRPRPYRKPRP | 0.0527
36 | RRIRGRPPRLPRPRPRPDRFPRP | 0.375
37 | RRIRDRPPRLPRPRPRPFTPPRP | -0.38
38 | RRIRRRPPRLPRPRPRPYYYPRP | -0.9
39 | RRIRHRPPRLPRPRPRPTWYPRP | -0.674
40 | RRIRQRPPRLPRPRPRPKRHPRP | -0.0733
41 | RRIRDRPPRLPRPRPRPARYPRP | 0.0754
42 | RRIRCRPPRLPRPRPRPIWMPRP | -0.677
43 | RRIRYRPPRLPRPRPRPKSAPRP | 0.0745
44 | RRIRHRPPRLPRPRPRPILAPRP | 0.00463
45 | RRIRARPPRLPRPRPRPLPLPRP | 0.186
46 | RRIRIRPPRLPRPRPRPTLFPRP | -0.131

Row | Sequence | shrunken log2 fold change
47 | RRIRMRPPRLPRPRPRPAREPRP | 1.86
48 | RRIRLRPPRLPRPRPRPSCFPRP | 0.172
49 | RRIRIRPPRLPRPRPRPMWAPRP | -0.0316
50 | RRIRTRPPRLPRPRPRPYIKPRP | -1.22
51 | RRIRSRPPRLPRPRPRPGRTPRP | 0.0636
52 | RRIRKRPPRLPRPRPRPCMAPRP | 0.0448
53 | RRIRCRPPRLPRPRPRPGMWPRP | 0.211
54 | RRIRTRPPRLPRPRPRPDWCPRP | -0.0271
55 | RRIRHRPPRLPRPRPRPEEIPRP | 0.0207
56 | RRIRFRPPRLPRPRPRPPMCPRP | -0.0102
57 | RRIRKRPPRLPRPRPRPIWFPRP | -0.0276
58 | RRIRVRPPRLPRPRPRPVQAPRP | -0.0106
59 | RRIRMRPPRLPRPRPRPLSFPRP | 0.102
60 | RRIRSRPPRLPRPRPRPDSYPRP | -0.221
61 | RRIRKRPPRLPRPRPRPYHDPRP | 0.035
62 | RRIRSRPPRLPRPRPRPAGHPRP | -0.794
63 | RRIRERPPRLPRPRPRPAYTPRP | -0.284
64 | RRIRKRPPRLPRPRPRPDYKPRP | -0.208
65 | RRIRGRPPRLPRPRPRPSREPRP | 0.51
66 | RRIRARPPRLPRPRPRPCYFPRP | -0.324
67 | RRIRKRPPRLPRPRPRPYCGPRP | 0.0176
68 | RRIRQRPPRLPRPRPRPGSVPRP | 0.241
69 | RRIRPRPPRLPRPRPRPDFKPRP | -0.464

Row | Sequence | shrunken log2 fold change
70 | RRIRSRPPRLPRPRPRPPAYPRP | -0.0776
71 | RRIRIRPPRLPRPRPRPPYWPRP | -0.00803
72 | RRIRMRPPRLPRPRPRPKGCPRP | -0.0257
73 | RRIRIRPPRLPRPRPRPNFFPRP | 0.00639
74 | RRIRARPPRLPRPRPRPNLLPRP | 0.00335
75 | RRIRIRPPRLPRPRPRPCIHPRP | -0.488
76 | RRIRDRPPRLPRPRPRPHIHPRP | -0.342
77 | RRIRERPPRLPRPRPRPTTEPRP | -0.0421
78 | RRIRDRPPRLPRPRPRPVRIPRP | 0.18
79 | RRIRYRPPRLPRPRPRPFVYPRP | -1.51
80 | RRIRMRPPRLPRPRPRPTKQPRP | 0.296
81 | RRIRRRPPRLPRPRPRPHDYPRP | -0.0628
82 | RRIRYRPPRLPRPRPRPKWYPRP | -0.884
83 | RRIRLRPPRLPRPRPRPFWGPRP | -0.507
84 | RRIRRRPPRLPRPRPRPKLHPRP | 0.167
85 | RRIRMRPPRLPRPRPRPTREPRP | 0.947
86 | RRIRQRPPRLPRPRPRPHSPPRP | 0.000964
87 | RRIRDRPPRLPRPRPRPVTFPRP | -0.0135
88 | RRIRYRPPRLPRPRPRPKKMPRP | -0.374
89 | RRIRTRPPRLPRPRPRPNCQPRP | -0.369
90 | RRIRPRPPRLPRPRPRPFWFPRP | -0.0717
91 | RRIRQRPPRLPRPRPRPTPAPRP | 0.953
